Measured values from US9441262B2, “MASP-2, a complement fixing enzyme, and uses for it” (Helion Biotech ApS, priority 1997, dated 2016).

Tested on: C4
Experiment: C4 converting activity on Western blot of MBL/MASP preparation (C4b deposition from human serum)
Type: biochemical
Conditions: blot incubated with human serum at 37° C., detection with anti-C4 antibody
Description: The C4 activating potentials of MASP-1 and MASP-2, and Clr and Cls, were compared. This was accomplished by separating a C1 preparation and an MBL/MASP preparation by SDS-PAGE followed by Western blotting. The blot was examined for C4 converting activity by incubation with human serum at 37° C., followed by detection of deposited C4b using anti-C4 antibodies.
C1 was purified by incubating IgG-coupled Sepharose beads with human serum at 4° C. The beads were washed and incubated at 37° C. for 30 minutes for activation of Clr and Cls. The beads were suspended in non-reducing sample buffer and, without boiling, subjected to SDS-PAGE, followed by blotting in the absence of SDS. A similar blot was made of an MBL preparation produced in the absence of enzyme inhibitors (The State Serum Institute, Copenhagen). Strips of the blots were incubated for 30 minutes at 37° C. with 1.10 (v/v) human MBL-deficient serum, depleted of Clq by fractionation on Biorex 70. The blots were developed with biotinylated F(ab)2 anti-C4 antibody followed by peroxidase-labelled streptavidin and luminescence reagent. Parallel blots were treated with a serine protease inhibitor (aminoethylbenzenesulfonyl fluoride), which was also present during incubation with serum. Other strips were directly developed with antibodies.

| Molecule | C4 deposition at the position of the band |
| --- | --- |
| MASP-2: mannan-binding lectin associated serine protease-2, polypeptide of SEQ ID NO:2 (protein, listed as Homo sapiens) MRLLTLLGLLCGSVATPLGPKWPEPVFGRLASPGFPGEYANDQERRWTLTAPPGYRLRLYFTHFDLELSHLCEYDFVKLSSGAKVLATLCGQESTDTERAPGKDTFYSLGSSLDITFRSDYSNEKPFTGFEAFYAAEDIDECQVAPGEAPTCDHHCHNHLGGFYCSCRAGYVLHRNKRTCSALCSGQVFTQRSGELSSPEYPRPYPKLSSCTYSISLEEGFSVILDFVESFDVETHPETLCPYEFLKIQTDREEHGPFCGKTLPHRIETKSNTVTITFVTDESGDHTGWKIHYTSTAQPCPYPMAPPNGHVSPVQAKYILKDSFSIFCETGYELLQGHLPLKSFTAVCQKDGSWDRPMPACSIVDCGPPDDLPSGRVEYITGPGVTTYKAVIQYSCEETFYTMKVNDGKYVCEADGFWTSSKGEKSLPVCEPVCGLSARTTGGRIYGGQKAKPGDFPWQVLILGGTTAAGALLYDNWVLTAAHAVYEQKHDASALDIRMGTLKRLSPHYTQAWSEAVFIHEGYTHDAGFDNDIALIKLNNKVVINSNITPICLPRKEAESFMRTDDIGTASGWGLTQRGFLARNLMYVDIPIVDHQKCTAAYEKPPYPRGSVTANMLCAGLESGGKDSCRGDSGGALVFLDSETERWFVGGIVSWGSMNCGEAGQYGVYTKVINYIPWIENIISDF | C4 was deposited |
| MASP-1: MBP-associated serine protease, similar in structure to Clr and Cls (protein) HTVELNNMFGQIQSPGYPDSYPSDSEVTWNITVPDGFRIKLYFMHFNLESSYLCEYDYVKVETEDQVLATFCGRETTDTEQTPGQEVVLSPGSFMSITFRSDFSNEERFTGFDAHYMAVDVDECKEREDEELSCDHYCHNYIGGYYCSCRFGYILHTDNRTCRVECSDNLFTQRTGVITSPDFPNPYPKSSECLYTIELEEGFMVNLQFEDIFDIEDHPEVPCPYDYIKIKVGPKVLGPFCGEKAPEPISTQSHSVLILFHSDNSGENRGWRLSYRAAGNEPELQPPVHGKIEPSQAKYFFKDQVLVSCDTGYKVLKDNVEMDTFQIECLKDGTWSNKIPTCKIVDCRAPGELEHGLITFSTRNNLTTYKSEIKYSCQEPYYKMLNNNTGIYTCSAQGVWMNKVLGRSLPTCLPVCGLPKFSRKLMARIFNGRPAQKGTTPWIAMLSHLNGQPFCGGSLLGSSWIVTAAHCLHQSLDPKDPTLRDSDLLSPSDFKIILGKHWRLRSDENEQHLGVKHTTLHPKYDPNTFENDVALVELLESPVLNAFVMPICLPEGPQQEGAMVIVSGWGKQFLQRFPETLMEIEIPIVDHSTCQKAYAPLKKKVTRDMICAGEKEGGKDACSGDSGGPMVTLNRERGQWYLVGTVSWGDDCGKKDRYGVYSYIHHNKDWIQRVTGVRN | no C4 deposition was observed |
